Results on four variants are retold here after paper PMC8777168 (2022).

To fix the notation:
B1: STUB1, expressed from a plasmid in 293T cells [not stated] / MIF in 293T cells [not stated] (parent complex)
chain 1: MKGKEEKEGGARLGAGGGSPEKSPSAQELKEQGNRLFVGRKYPEAAACYGRAITRNPLVAVYYTNRALCYLKMQQHEQALADCRRALELDGQSVKAHFFLGQCQLEMESYDEAIANLQRAYSLAKEQRLNFGDDIPSALRIAKKKRWNSIEERRIHQESELHSYLSRLIAAERERELEECQRNHEGDEDDSHVRAQQACIEAKHDKYMADMDELFSQVDEKRKKRDIPDYLCGKISFELMREPCITPSGITYDRKDIEEHLQRVGHFDPVTRSPLTQEQLIPNLAMKEVIDAFISENGWVEDY
chain 2: PMFIVNTNVPRASVPDGFLSELTQQLAQATGKPPQYIAVHVVPDQLMAFGGSSEPCALCSLHSIGKIGGAQNRSYSKLLCGLLAERLRISPDRVYINYYDMNAANVGWNNSTFA

This assay covers variants of B1. The assay is described as follows: co-immunoprecipitation (IP: Myc, IB: MIF) and western blot, band quantification; 293T cells transfected for 24 h with STUB1 mutation plasmids; triplicate experiments, mean ± SD; read off a plot.
chain 1 K143A: the response was ~0.22 MIF/Input ratio.

On to chain 1 W147A, for which the response was ~1 MIF/Input ratio.

Turning to chain 1 S149A, the response was ~1 MIF/Input ratio.

In the case of chain 1 R66A, the response is ~0.25 MIF/Input ratio.
